Entries after “also recorded” stand apart in the source; their conditions may differ.
How the values were obtained:
[1] = mouse, in vivo, cited from earlier work
[2] = test system: human monocyte-derived DCs; test: Immunomodulatory activity over human monocyte-derived DCs: CD83/CD86 surface expression by flow cytometry after LPS maturation; format: cell-based; details: FIG. 4
Method: In Vitro Functional Assessment of the Immunomodulatory Activity of Full-Length C4BP(β−) and C4BP(β−) Variants Over DCs
The inventors used for the in vitro study both C4BP(β+) (WT) and recombinant C4BP(β−) isoforms, and the above-referred mutants or variants: Mutant 1 and Mutant 2. C4BP(β+) isoforms refer to the major C4BP α7β1 plus the minor C4BP α6β1 isoforms (both in complex with ProS) purified from pooled human plasma.
RPMI 1640 was supplemented with 100 μg/ml of streptomycin, 100 IU/ml of penicillin, 2 mM L-glutamine (all from Invitrogen, Carlsbad, CA) and 10% heat-inactivated fetal bovine serum (Linus, Cultek, Spain) (complete medium), unless otherwise stated.
Peripheral blood mononuclear cells (PBMCs) were obtained from buffy coat preparations collected from healthy donors from the Blood and Tissue Bank (Barcelona, Spain) after Ficoll-Paque™ density centrifugation (GE Healthcare Bio-Sciences AB; Uppsala, Sweden). For surface phenotype determination, monocytes were plated at 1×10^6 cells/ml in 60 mm culture plates (Corning, Spain), in RPMI 1640 medium without serum, and allowed to adhere for 2 h at 37° C. in 5% CO2. The non-adherent cells were removed by washing in PBS.
Monocyte-derived DCs were generated supplementing the monocyte cultures with complete RPMI 1640 medium plus GM-CSF (800 UI/ml) and IL-4 (500 UI/ml) (both from Gentaur, Kampenhout, Belgium) at day 0 and day 3 of culture. For DC maturation, at day 5 iDCs were further stimulated for 48 h with 5 μg/ml LPS (Escherichia coli 055.B5, Sigma L2880, Copenhagen, Denmark).
Staining using the fluorescent dye 7-amino-actinomycin D (7-AAD) (BD Pharmigen) and flow cytometry analysis was employed to assess the viability status of C4BP-treated and untreated DCs.
Cell surface phenotypes were analyzed by flow cytometry using the following mAbs: FITC-conjugated anti-CD83 (HB15a) and PE-conjugated anti-CD86 (HA5.2B7) (all from Beckman-Coulter). The respective isotype controls FITC-conjugated anti-IgG2b (H2) and PE-conjugated anti-IgG2b (H2), were from the same commercial sources. After washing with PBS, cells were subsequently stained with 3 μl mAb/10^5 cells in 100 μl of FACS buffer (PBS containing 1% BSA and 0.1% sodium azide) for 20 min at room temperature. To exclude dead cells and debris, DCs were gated according to forward scatter (FSC) and side scatter (SSC) parameters. Stained cells were analyzed using a FACSCalibur (Becton Dickinson, Franklin Lakes, NJ) equipped with CellQuestPro software (Becton Dickinson).
In Vitro Functional Assessment of C4BP(β−) Immunomodulatory Activity Over DCs
The inventors used for the in vitro study both C4BP(+) and C4BP(β−) isoforms. C4BP(3+) isoforms refer to the major C4BP α7β1 plus the minor C4BP α6β1 isoforms (both in complex with ProS) purified from pooled human plasma, as previously described (Dahlbäck B. 1983. Biochem J., 209:847-56).

[3] = test system: lupus-prone NZBWF1 mice; test: Renal function (24 h proteinuria) in spontaneous SLE mouse model NZBWF1; format: in vivo; details: for delay in the onset of proteinuria: vs PBS-treated control
Method: Mice, Study Design and Follow Up
NZB/NZW F1 or NZBWF1/J (Charles-River), NZB/NZW F1 (Jackson, code 100008) are a hybrid cross between NZB/B1NJ (Jackson, code 000684) Female x NZW/LacJ (Jackson, code 001058) Male. NZBWF1/J mice develop an autoimmune disease resembling human systemic lupus erythematosus. The inventors used 58 females (30-35 g/each) aged 15 weeks for the study (4-5 animals per cage). The animals were maintained under standard laboratory conditions, at 20-24° C. and 40-70% relative humidity, with 12-hour fluorescent light/12-hour dark cycle. They were feed standard diet and tap water ad libitum. […]
Dose Selection and Administration.
The selection of the C4BP(β−) dose for in vivo administration was based in previous studies employing complement-related proteins in immune-inflammatory pathologies. Blom et al. (Blom et al. 2009. Ann. Rheum. Dis., 68:136-42) used the C4BP isoform lacking β chain in experimental collagen-induced arthritis (CIA) and collagen antibody-induced arthritis (CAIA) mice to investigate the influence of complement activity in the treatment of rheumatoid arthritis. These authors administered intraperitoneally C4BP (2 mg/mouse) using a multiple dose-regimen once every two days in preventive and therapeutic experiments. Thus, in the current study, C4BP(β−) was administered both intraperitoneally (IP) and subcutaneously (SC) into NZBWF1 mice for three months (between six and nine months of age).
Alperovich et al (Alperovich et al. 2007. Lupus, 16:18-24) administered cyclophosphamide (CYP) to NZBWF1 mice at 50 mg/kg IP every 10 days.
(§1) Both IP and SC administrations for C4BP(β−), CYP and PBS (150 μl/each) were performed with a 25-gauge needle during 30 s, after rinsing the skin with 70% ethanol.
(§2) The detailed administration schedule was as follows (Table 5):
Body weight was determined twice monthly from the beginning to the end of follow-up. Mice were placed in metabolic cages to collect 24 h urine specimens before the onset of treatment and monthly thereafter. Blood was obtained from the tail vein at monthly intervals.
Renal Function Analysis: Proteinuria
24 h urinary protein was determined by pyrogallol red (Olympum Autoanalyzer AU400, Hamburg, Germany) in the Veterinary Clinical Biochemistry Laboratory from Universitat Autonoma de Barcelona.
(§3) One-way analysis of variance (ANOVA) with post hoc tests was performed to compare proteinuria throughout the follow up. Survival data were analyzed using Kaplan-Meier curves and long-rank test. P value<0.05 was considered significant. Data are expressed as mean±SEM.

[4] = test system: lupus-prone NZBWF1 mice; test: Kaplan-Meier survival in spontaneous SLE mouse model NZBWF1; format: in vivo; details: for mice still alive at the end of the study: 330 days
Method: NZBWF1/J mice develop an autoimmune disease resembling human systemic lupus erythematosus. […] The animals were maintained under standard laboratory conditions, at 20-24° C. and 40-70% relative humidity, with 12-hour fluorescent light/12-hour dark cycle. They were feed standard diet and tap water ad libitum.
as §1, §2, §3

[5] = IP, 5 μg/mouse once every two weeks
[6] = IP, 50 μg/mouse once every two weeks
[7] = IP, 500 μg/mouse once every two weeks

B1: C4BP: human C4b-binding protein as used by Blom et al. 2009, intraperitoneally in mice (protein, UniProt P04003 49-597; P20851 18-252, looked up)
C4b-binding protein alpha …: NCGPPPTLSFAAPMDITLTETRFKTGTTLKYTCLPGYVRSHSTQTLTCNSDGEWVYNTFCIYKRCRHPGELRNGQVEIKTDLSFGSQIEFSCSEGFFLIGSTTSRCEVQDRGVGWSHPLPQCEIVKCKPPPDIRNGRHSGEENFYAYGFSVTYSCDPRFSLLGHASISCTVENETIGVWRPSPPTCEKITCRKPDVSHGEMVSGFGPIYNYKDTIVFKCQKGFVLRGSSVIHCDADSKWNPSPPACEPNSCINLPDIPHASWETYPRPTKEDVYVVGTVLRYRCHPGYKPTTDEPTTVICQKNLRWTPYQGCEALCCPEPKLNNGEITQHRKSRPANHCVYFYGDEISFSCHETSRFSAICQGDGTWSPRTPSCGDICNFPPKIAHGHYKQSSSYSFFKEEIIYECDKGYILVGQAKLSCSYSHWSAPAPQCKALCRKPELVNGRLSVDKDQYVEPENVTIQCDSGYGVVGPQSITCSGNRTWYPEVPKCEWETPEGCEQVLTGKRLMQCLPNPEDVKMALEVYKLSLEIEQLELQRDSARQSTLDKEL
C4b-binding protein beta chain: SDAEHCPELPPVDNSIFVAKEVEGQILGTYVCIKGYHLVGKKTLFCNASKEWDNTTTECRLGHCPDPVLVNGEFSSSGPVNVSDKITFMCNDHYILKGSNRSQCLEDHTWAPPFPICKSRDCDPPGNPVHGYFEGNNFTLGSTISYYCEDRYYLVGVQEQQCVDGEWSSALPVCKLIQEAPKPECEKALLAFQESKNLCEAMENFMQQLKESGMTMEELKYSLELKKAELKAKLL
[1]; ip
  initial amount remaining in the circulation: 3%
[1]
  clearance from the circulation: cleared fast

B2: rC4BP(β−): recombinant C4BP isoform lacking the β-chain, transiently produced in HEK293 cells (Expi293 cells) (protein, UniProt P04003 49-597, looked up)
C4b-binding protein alpha …: B1 C4b-binding protein alpha …
modifications: alpha-chain-only isoform, recombinant
[2]; MoDCs pre-incubated with 5 μg/ml protein, LPS challenge
  semi-mature, anti-inflammatory phenotype conferred to LPS-matured MoDCs (immunomodulatory activity): able to confer an analogous semi-mature, anti-inflammatory phenotype
[2]; human MoDCs, 5 μg/ml C4BP isoform, LPS 5 μg/ml
  CD83 and CD86 surface marker expression: restrain similarly CD83 and CD86 surface marker expression
[3]; [5]
  proteinuria by week 37: severe proteinuria indistinguishable from the PBS-treated control group
  delay in the onset of proteinuria: 2 week
[3]; [6]
  proteinuria by week 37: severe proteinuria indistinguishable from the PBS-treated control group
  delay in the onset of proteinuria: 2 week
[3]; [7]
  proteinuria level at the end of the study (week 37): ~300 mg protein/kg
  delay in the onset of proteinuria: 6 weeks
[3]; SC, 50 μg once every two weeks
  proteinuria by week 37 (end of the study): < 200 mg/kg
[3]; mouse, in vivo, sc
  onset / development of proteinuria: significantly delayed; also recorded: strongest attenuation of proteinuria development
[3]; same regimen, SLE mouse model
  efficacy, SC 50 μg/mouse vs IP 500 μg/mouse: more effective than the intraperitoneal administration of 500 μg/mouse
[4]; IP, 5 μg once every two weeks, all mice died at end of study (330 days)
  survival: performed similarly to the control PBS-treated group
[4]; IP, 50 μg once every two weeks
  mice still alive at the end of the study: 20-30%
[4]; IP, 500 μg once every two weeks
  mice still alive at the end of the study: 20-30%
[4]; SC route, all treatment groups
  mice active at the end of the study: maintained mice active at the end of the study
[4]; SC, 50 μg once every two weeks
  mice alive at 330 days: more than 60%
  survival respect to control PBS-treated mice: appreciably delay their survival; also recorded: best survival rate
[4]; SC, 50 μg, NZBWF1 mice
  progress of the disease: substantial slowing of the progress of the disease
[4]; any of the rC4BP(β−)-treated groups, n=6
  statistical analysis of Kaplan-Meier survival curves vs control PBS-treated group: no statistically significant differences
[4]; doses of 5 μg and 50 μg, FIG. 6
  survival, subcutaneous route compared with intraperitoneal route: higher

Source: patent publication US12006343B2, “C4BP-based compounds for treating immunological diseases” (FUNDACIO INSTITUT D'INVESTIGACIO BIOMEDICA DE BELLVITGE …, priority 2017, dated 2024)
